# Laboratory results reported in patent publication US9120851B2, “Human antibodies to human angiopoietin-like protein 4” (Regeneron Pharmaceuticals, Inc., priority 2009, dated 2015).
# B1: H4H268P2: IgG4 version of H1H268P with a single amino acid substitution in framework region 1, HCVR/LCVR SEQ ID NOs 487/44 (antibody, V domains shown)
# VH: QVQLQQSGAGLLKPSETLSLTCTVYGGSFSIHHWTWIRHPPGKGLEWIGEINHRGSTNYNPSLKSRVTISIDTSKNQFSLKLSAVTAADTAVYYCARGLRFLDWLSSYFDYWGQGTLVTVSS
# VL: DIQMTQSPSSLSASVGDRVTITCRASQGISDYLAWYQQKPGKVPNLLIYAASALQSGVPSRFSGSGSGTDFTLTISSLQPEDVATYYCQNYNTAPLTFGGGTKVEIK
# modifications: IgG4 constant region
# Columns and labels:
# [1] = Pharmacokinetic clearance in wild-type and hANGPTL4(+/+) mice, sandwich ELISA; assay type: in vivo, mouse; conditions: 1 mg/kg s.c.
# Method: Pharmacokinetic clearance rates of anti-hANGPTL4 antibodies H4H268P2 and H4H284P were determined in wild-type mice and in transgenic mice expressing human ANGPTL4 [hANGPTL4(+/+) mice]. The strain background for both wild-type and transgenic mice was C57BL6 (75%) and 129Sv (25%). Separate cohorts consisting of 5 mice each of either wild-type or hANGPTL4(+/+) mice received subcutaneously (s.c.) 1 mg/kg of H4H268P2, H4H284P, or an isotype-matched (hIgG4) control with irrelevant specificity. Blood samples were collected at 0 hour, 6 hours, 1 day, 2 days, 3 days, 4 days, 7 days, 10 days, and 15 days, 22 days, and 30 days after the injection. Serum levels of human antibodies were determined by a sandwich ELISA. Briefly, a goat polyclonal anti-human IgG (Fc-specific) capture antibody (Jackson ImmunoResearch, PA) was coated in 96-well plates at a concentration of 1 μg/mL and incubated overnight at 4° C. After the plates were blocked with BSA, serum samples in a six-point serial dilution and reference standards of the respective antibody in a twelve-point serial dilution were added to the plate and incubated for one hour at room temperature. After washing with a suitable washing buffer, captured human antibodies were detected using the same goat polyclonal anti-human IgG (Fc-specific) antibody conjugated with horse radish peroxidase (HRP) (Jackson ImmunoResearch, PA) and developed by standard colorimetric response using tetramethylbenzidine (TMB) substrate, measuring absorbance at 450 nm in a plate reader. Concentrations of human antibodies in serum were determined using the reference standard curve generated for the same sample plate.
# [2] = system: humanized ANGPTL4×ApoE null mice; test: Serum TG levels in humanized ANGPTL4 x ApoE null mice; assay type: in vivo, mouse
# Method: The effect of H4H268P2 on circulating TG levels was further studied in humanized ANGPTL4 mice crossed to ApoE null mice. The ApoE null mouse model is known as a highly atherogenic and hyperlipidemic model with the majority of cholesterol and TG circulating in VLDL particles due to impaired VLDL remnant clearance. Humanized ANGPTL4×ApoE null mice were pre-bled 7 days before the experiment and put into 2 groups of six mice each. Antibodies H4H268P2 and Control Ab were administered at 10 mg/kg by subcutaneous injection. Mice were bled after 4 hours of fasting on days 1, 4, 7, 11 and 17 after antibody injection and TG levels were determined in the serum by ADVIA® 1800 Chemistry System (Siemens). TG reductions shown in FIG. 4 are expressed as a percent of TG levels compared to Control Ab.
# [3] = system: obese rhesus monkeys (Macaca mulatta); test: Phase I pilot PK/PD study in obese rhesus monkeys; assay type: in vivo, rhesus monkey (Macaca mulatta)
# Method: Phase I: In a pilot non-GLP pharmacokinetics/pharmacodynamic (PK/PD) study, H4H268P2 and H4H284P were administered as a single bolus intravenous (IV) injection, to obese rhesus monkeys (Macaca mulatta). Rhesus monkeys were selected because this species is closely related, both phylogenically and physiologically, to humans and is a species commonly used for nonclinical toxicity evaluations. Obese monkeys that had been on a high fat diet for greater than 6 months were selected because they typically display moderately elevated TG levels (i.e., mean >100 mg/dL; hyper-TG). Eight confirmed healthy, male monkeys were acclimated and assigned to the study for baseline assessment for 7 days prior to dosing. All animals received a vehicle (10 mM histidine, pH 6) IV infusion on Day −5, after which four of them received H4H268P2 and another four H4H284P at 10 mg/kg IV on day 0.
# Serum samples were collected from the baseline period through day 35 post-dosing and assessed for serum lipid levels by ADVIA® 1800 Chemistry System (Siemens). The average baseline for each animal was determined based on the samples taken on Days −7, −5 and 0. […] Thus the data analysis was done with 3 animals in each group. Percent (%) changes of serum TG levels from the baseline were determined for each animal and averaged for each Ab group.
molecule,measurement,setting,value
B1,Cmax,[1]; Wild-type mice,18400 ng/mL
same,Cmax,[1]; hANGPTL4(+/+) mice,13300 ng/mL
same,AUC,"[1]; hANGPTL4(+/+) mice, over the 30-day period",37000 ng·h/mL
same,TG reduction compared to Control Ab,"[2]; all 17 days, 10 mg/kg s.c.",more than 42%
same,greatest TG reduction compared to Control Ab,"[2]; day 7, 10 mg/kg s.c.",~50%
same,"additional lipids, such as LDL-C and HDL-C, in words",[3]; 10 mg/kg IV,Moderate effects
same,"total-C, in words",[3]; 10 mg/kg IV,unchanged
same,injection site reactions or other adverse effects,"[3]; 10 mg/kg IV, any time point after infusion",No injection site reactions or other adverse effects were observed
same,maximal reduction of serum TG from baseline,"[3]; day 4 post-dosing, 10 mg/kg IV, three mildly hyper-TG animals",57%
same,"fasting TG's or any other lipid parameters, in words","[3]; single obese animal with low TG levels, 10 mg/kg IV",did not yield any significant effect
same,mean serum TG levels,"[3]; until approximately Day 25, 10 mg/kg IV, three mildly hyper-TG animals",≤ 100 mg/dL
